Numbered stars: 1 amine (or outer) side, 2 acyl side, 3 side chain; on linkers, the order of the positions; unused ones are H or OH. Bridge positions count the residues as written; N and C are the ends. Side chains are listed from the residue outwards. Peptide text beside a SMILES is read from it. * marks the point of attachment. X1 = C/C(=N\O)C(C)(C)NCCC(CCNC(C)(C)/C(C)=N/O)CCN*; Glutaryl = O=C(CCCC(=O)[*:2])[*:1]; X2 = NC(=O)COCC(=O)NCCOCCOCCOCCN*
Columns and labels:
healthy volunteers [1] = assay: clinical; design: species or system human; conditions: in vivo, iv
Method: (§1) To calculate ^99mTc-maraciclatide ex-vivo activity, blood, plasma, urine, and faeces were collected at various time points after administration. Blood and plasma samples were collected at 10 min, 30 min, 1 h, 2 h, 4 h, 8 h, 24 h, 48 h, 72 h, and 7 days post-administration. Concentrations of maraciclatide in plasma were assayed using the LC-MS method (LOQ was 0.5 ng/ml). Urine was also collected at the same time points (if possible) up to 24 h post-administration. Faecal samples were collected as voided for up to 24 h post-administration. Assayed samples for ^99mTc-maraciclatide content were then measured using a gamma counter.
(§2) Concentrations of maraciclatide in plasma were assayed using the LC-MS method (LOQ was 0.5 ng/ml). The mean apparent terminal elimination half-life was approximately 1 h. Overall, systemic clearance was approximately 6.7 ml/min/kg, whilst the mean apparent volume of distribution was approximately 520 ml/kg. The majority of ^99mTc activity was excreted through the urinary pathway and GI tract, 55% and 16%, respectively.

clinical = assay: clinical; design: species or system human; conditions: human, in vivo, iv
Method: as §1, §2

healthy volunteers [2] = system: healthy volunteers; design: method as in PMID 17353156; conditions: human urine, highest dose group (150 micrograms maraciclatide), reversed-phase LC ion-trap MS; cited from earlier work
healthy volunteers [3] = assay: Phase 1 safety assessment (adverse events, vital signs, ECG, laboratory parameters)
Method: In 2003, a phase 1, placebo-controlled, observer-blinded, randomised, single ascending-dose study was performed. The study aimed to assess the safety of three intravenous levels of maraciclatide and the biodistribution and radiation dosimetry of ^99mTc-maraciclatide in healthy volunteers, assessing the potential of ^99mTc-maraciclatide as a radiopharmaceutical for diagnostic imaging.
Safety data on vital signs (heart rate, blood pressure, temperature, and oxygen saturation), electrocardiograms (ECG), laboratory parameters and physical examinations (general appearance, lung, abdominal, cardiovascular, and neurological exam by a qualified clinician) were measured prior to administration, and at multiple time points up to 7 days following administration. Based on clinical assessment, new abnormal or worsening clinical findings were defined as a change from the participant’s normal baseline to abnormal. All abnormal changes were recorded as adverse events (AEs).
Safety assessments were performed by an observer blinded to the administration of the placebo and ^99mTc-maraciclatide. A thorough review of safety data was performed before the decision was made to escalate to the higher dose in participants.

integrin receptor αvβ3 = conditions: background statement, no reference printed; cited from earlier work

C/C(=N\O)C(C)(C)NCCC(CCNC(=O)CCCC(=O)NCCCC[C@@H]1NC(=O)CSC[C@@H](C(=O)NCCOCCOCCOCCNC(=O)COCC(N)=O)NC(=O)[C@H](Cc2ccccc2)NC(=O)[C@@H]2CSSC[C@H](NC1=O)C(=O)N[C@@H](CCCNC(=N)N)C(=O)NCC(=O)N[C@@H](CC(=O)O)C(=O)N2)CCNC(C)(C)/C(C)=N/O (stereo partly shown) [Maraciclatide] ({CH2CO}-K([Glutaryl-X1])CRGDCFC-X2; disulfide 2-6; thioether N-8; N-terminus and C-terminus assumed)
~0.52 L/kg: Vd (clinical)
Only intact maraciclatide was observed: species observed in urine samples (in-vivo stability) (healthy volunteers [2])
1: Contact dermatitis: No. of AEs (healthy volunteers [3]; 15 μg maraciclatide (n = 8)) | Contact dermatitis: No. with AEs (healthy volunteers [3]; 15 μg maraciclatide (n = 8)) | Diarrhoea: No. of AEs (healthy volunteers [3]; 15 μg maraciclatide (n = 8)) | Diarrhoea: No. with AEs (healthy volunteers [3]; 15 μg maraciclatide (n = 8)) | Dizziness: No. of AEs (healthy volunteers [3]; 15 μg maraciclatide (n = 8)) | Dizziness: No. with AEs (healthy volunteers [3]; 15 μg maraciclatide (n = 8)) | Hypoaesthesia: No. of AEs (healthy volunteers [3]; 15 μg maraciclatide (n = 8)) | Hypoaesthesia: No. with AEs (healthy volunteers [3]; 15 μg maraciclatide (n = 8)) | Infection: No. of AEs (healthy volunteers [3]; 15 μg maraciclatide (n = 8)) | Infection: No. with AEs (healthy volunteers [3]; 15 μg maraciclatide (n = 8)) | Blood phosphate decrease: No. with AEs (healthy volunteers [3]; 75 μg maraciclatide (n = 8)) | Cardiac disorder: No. of AEs (healthy volunteers [3]; 75 μg maraciclatide (n = 8)) | Cardiac disorder: No. with AEs (healthy volunteers [3]; 75 μg maraciclatide (n = 8)) | ECG QRS complex prolonged: No. of AEs (healthy volunteers [3]; 75 μg maraciclatide (n = 8)) | ECG QRS complex prolonged: No. with AEs (healthy volunteers [3]; 75 μg maraciclatide (n = 8)) | Hyporeflexia: No. of AEs (healthy volunteers [3]; 75 μg maraciclatide (n = 8)) | Hyporeflexia: No. with AEs (healthy volunteers [3]; 75 μg maraciclatide (n = 8)) | Crystal urine present: No. of AEs (healthy volunteers [3]; 150 μg maraciclatide (n = 8)) | Crystal urine present: No. with AEs (healthy volunteers [3]; 150 μg maraciclatide (n = 8)) | Herpes simplex virus: No. with AEs (healthy volunteers [3]; 150 μg maraciclatide (n = 8)) | Hyperkalaemia: No. of AEs (healthy volunteers [3]; 150 μg maraciclatide (n = 8)) | Hyperkalaemia: No. with AEs (healthy volunteers [3]; 150 μg maraciclatide (n = 8)) | Infection: No. of AEs (healthy volunteers [3]; 150 μg maraciclatide (n = 8)) | Infection: No. with AEs (healthy volunteers [3]; 150 μg maraciclatide (n = 8))
23%: AEs deemed related to maraciclatide (percent) (healthy volunteers [3]; in vivo)
7: AEs deemed related to maraciclatide (number) (healthy volunteers [3]; in vivo)
Other: Hyporeflexia: Cause of AE (healthy volunteers [3]; 75 μg maraciclatide (n = 8))
Unrelated medical condition: ECG QRS complex prolonged: Cause of AE (healthy volunteers [3]; 75 μg maraciclatide (n = 8))
~1 h: half-life (clinical)
no metabolites were detected: metabolites in urine (healthy volunteers [2])
Procedural complication: Contact dermatitis: Cause of AE (healthy volunteers [3]; 15 μg maraciclatide (n = 8)) | Hyperkalaemia: Cause of AEs (healthy volunteers [3]; 150 μg maraciclatide (n = 8))
bi-exponential decline: plasma concentration time course (healthy volunteers [1])
nanomolar affinity: affinity to αvβ3 (integrin receptor αvβ3)
~6.7 mL/min/kg: clearance (clinical)
IMP: Abdominal pain: Cause of AE (healthy volunteers [3]; 15 μg maraciclatide (n = 8)) | Diarrhoea: Cause of AE (healthy volunteers [3]; 15 μg maraciclatide (n = 8)) | Dizziness: Cause of AE (healthy volunteers [3]; 15 μg maraciclatide (n = 8)) | Hypoaesthesia: Cause of AE (healthy volunteers [3]; 15 μg maraciclatide (n = 8)) | Crystal urine present: Cause of AEs (healthy volunteers [3]; 150 μg maraciclatide (n = 8))
0: Blood phosphate decrease: No. with AEs (healthy volunteers [3]; 15 μg maraciclatide (n = 8)) | Cardiac disorder: No. of AEs (healthy volunteers [3]; 15 μg maraciclatide (n = 8)) | Cardiac disorder: No. with AEs (healthy volunteers [3]; 15 μg maraciclatide (n = 8)) | Crystal urine present: No. of AEs (healthy volunteers [3]; 15 μg maraciclatide (n = 8)) | Crystal urine present: No. with AEs (healthy volunteers [3]; 15 μg maraciclatide (n = 8)) | ECG PR shortened: No. of AEs (healthy volunteers [3]; 15 μg maraciclatide (n = 8)) | ECG PR shortened: No. with AEs (healthy volunteers [3]; 15 μg maraciclatide (n = 8)) | ECG QRS complex prolonged: No. of AEs (healthy volunteers [3]; 15 μg maraciclatide (n = 8)) | ECG QRS complex prolonged: No. with AEs (healthy volunteers [3]; 15 μg maraciclatide (n = 8)) | Herpes simplex virus: No. with AEs (healthy volunteers [3]; 15 μg maraciclatide (n = 8)) | Hyperkalaemia: No. of AEs (healthy volunteers [3]; 15 μg maraciclatide (n = 8)) | Hyperkalaemia: No. with AEs (healthy volunteers [3]; 15 μg maraciclatide (n = 8)) | Crystal urine present: No. of AEs (healthy volunteers [3]; 75 μg maraciclatide (n = 8)) | Crystal urine present: No. with AEs (healthy volunteers [3]; 75 μg maraciclatide (n = 8)) | Dizziness: No. of AEs (healthy volunteers [3]; 75 μg maraciclatide (n = 8)) | Dizziness: No. with AEs (healthy volunteers [3]; 75 μg maraciclatide (n = 8)) | ECG PR shortened: No. of AEs (healthy volunteers [3]; 75 μg maraciclatide (n = 8)) | ECG PR shortened: No. with AEs (healthy volunteers [3]; 75 μg maraciclatide (n = 8)) | Herpes simplex virus: No. with AEs (healthy volunteers [3]; 75 μg maraciclatide (n = 8)) | Hyperkalaemia: No. of AEs (healthy volunteers [3]; 75 μg maraciclatide (n = 8)) | Hyperkalaemia: No. with AEs (healthy volunteers [3]; 75 μg maraciclatide (n = 8)) | Hypoaesthesia: No. of AEs (healthy volunteers [3]; 75 μg maraciclatide (n = 8)) | Hypoaesthesia: No. with AEs (healthy volunteers [3]; 75 μg maraciclatide (n = 8)) | Infection: No. of AEs (healthy volunteers [3]; 75 μg maraciclatide (n = 8)) | Infection: No. with AEs (healthy volunteers [3]; 75 μg maraciclatide (n = 8)) | Blood phosphate decrease: No. with AEs (healthy volunteers [3]; 150 μg maraciclatide (n = 8)) | Cardiac disorder: No. of AEs (healthy volunteers [3]; 150 μg maraciclatide (n = 8)) | Cardiac disorder: No. with AEs (healthy volunteers [3]; 150 μg maraciclatide (n = 8)) | Diarrhoea: No. of AEs (healthy volunteers [3]; 150 μg maraciclatide (n = 8)) | Diarrhoea: No. with AEs (healthy volunteers [3]; 150 μg maraciclatide (n = 8)) | Dizziness: No. of AEs (healthy volunteers [3]; 150 μg maraciclatide (n = 8)) | Dizziness: No. with AEs (healthy volunteers [3]; 150 μg maraciclatide (n = 8)) | ECG PR shortened: No. of AEs (healthy volunteers [3]; 150 μg maraciclatide (n = 8)) | ECG PR shortened: No. with AEs (healthy volunteers [3]; 150 μg maraciclatide (n = 8)) | ECG QRS complex prolonged: No. of AEs (healthy volunteers [3]; 150 μg maraciclatide (n = 8)) | ECG QRS complex prolonged: No. with AEs (healthy volunteers [3]; 150 μg maraciclatide (n = 8)) | Hypoaesthesia: No. of AEs (healthy volunteers [3]; 150 μg maraciclatide (n = 8)) | Hypoaesthesia: No. with AEs (healthy volunteers [3]; 150 μg maraciclatide (n = 8)) | Hyporeflexia: No. of AEs (healthy volunteers [3]; 150 μg maraciclatide (n = 8)) | Hyporeflexia: No. with AEs (healthy volunteers [3]; 150 μg maraciclatide (n = 8))
